Assay results: US20250339531A1, “DUX4 POLYPEPTIDES AND NUCLEIC ACIDS FOR TREATING INFLAMMATORY AND AUTOIMMUNE CONDITIONS” (Fred Hutchinson Cancer Center, priority 2021, published 2025)

Key:
Experiment in all cases: anti-FLAG co-IP LC-MS, exp 3, +IFNg +Dox
[1] = target: Dolichyl-diphosphooligosaccharide--protein glycosyltransferase subunit 1 (Homo sapiens) (UniProt P04843)
[2] = target: Ras GTPase-activating protein-binding protein 2 (Homo sapiens) (UniProt Q9UN86)
[3] = target: Ribosome-binding protein 1 (Homo sapiens) (UniProt Q9P2E9)
[4] = target: KN motif and ankyrin repeat domain-containing protein 2 (Homo sapiens) (UniProt Q63ZY3)
[5] = target: 60S ribosomal protein L4 (Homo sapiens) (UniProt P36578)
[6] = target: Reticulon-4 (Homo sapiens) (UniProt Q9NQC3)
Caprin-1 (Homo sapiens) = Caprin-1 (Homo sapiens) (UniProt Q14444)
[7] = target: Neuroblast differentiation-associated protein AHNAK (Homo sapiens) (UniProt Q09666)
[8] = target: ADP/ATP translocase 2 (Homo sapiens) (UniProt P05141)
[9] = target: AP-2 complex subunit beta (Homo sapiens) (UniProt P63010)
[10] = target: Heterogeneous nuclear ribonucleoprotein H (Homo sapiens) (UniProt G8JLB6)
[11] = target: Protease serine 2 preproprotein (Homo sapiens) (UniProt A6XMV9)
[12] = target: Heat shock 70 kDa protein 1B (Homo sapiens) (UniProt P0DMV9)
[13] = target: 40S ribosomal protein S8 (Homo sapiens) (UniProt P62241)
[14] = target: Spectrin alpha chain, non-erythrocytic 1 (Homo sapiens) (UniProt Q13813)
[15] = target: T-complex protein 1 subunit theta (Homo sapiens) (UniProt P50990)
T-complex protein 1 subunit theta (Homo sapiens), sequence (P50990 2-548 limits assumed, one chain of several): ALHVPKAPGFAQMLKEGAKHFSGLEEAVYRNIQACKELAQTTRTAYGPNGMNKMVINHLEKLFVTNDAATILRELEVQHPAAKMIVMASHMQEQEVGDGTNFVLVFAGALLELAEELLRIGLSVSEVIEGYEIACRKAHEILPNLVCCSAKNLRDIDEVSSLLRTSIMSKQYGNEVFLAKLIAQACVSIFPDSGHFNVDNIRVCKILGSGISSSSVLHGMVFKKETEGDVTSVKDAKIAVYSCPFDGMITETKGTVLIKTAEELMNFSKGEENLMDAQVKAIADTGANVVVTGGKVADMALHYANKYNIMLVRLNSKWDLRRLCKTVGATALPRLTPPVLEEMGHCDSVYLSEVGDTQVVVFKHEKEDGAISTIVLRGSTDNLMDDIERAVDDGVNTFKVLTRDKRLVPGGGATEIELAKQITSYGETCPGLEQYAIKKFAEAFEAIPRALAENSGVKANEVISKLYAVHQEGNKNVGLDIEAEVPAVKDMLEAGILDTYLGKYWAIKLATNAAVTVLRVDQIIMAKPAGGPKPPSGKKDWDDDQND

[16] = target: Plasminogen activator inhibitor 1 RNA-binding protein (Homo sapiens) (UniProt Q8NC51)
Plasminogen activator inhibitor 1 RNA-binding protein (Homo sapiens), sequence (Q8NC51 2-408 limits assumed): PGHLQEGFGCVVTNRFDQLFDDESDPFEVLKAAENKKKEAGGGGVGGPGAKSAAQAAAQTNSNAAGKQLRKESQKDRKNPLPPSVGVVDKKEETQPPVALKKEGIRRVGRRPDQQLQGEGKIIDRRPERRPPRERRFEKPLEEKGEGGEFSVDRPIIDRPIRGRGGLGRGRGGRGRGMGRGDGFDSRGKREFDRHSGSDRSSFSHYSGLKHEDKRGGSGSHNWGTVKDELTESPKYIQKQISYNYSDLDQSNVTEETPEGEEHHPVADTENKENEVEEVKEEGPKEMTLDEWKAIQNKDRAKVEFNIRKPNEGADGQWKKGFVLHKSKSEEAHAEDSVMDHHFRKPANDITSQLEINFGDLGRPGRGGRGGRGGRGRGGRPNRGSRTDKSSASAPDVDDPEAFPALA

[17] = target: 60S ribosomal protein L13 (Homo sapiens) (UniProt P26373)
[18] = target: Procollagen-lysine,2-oxoglutarate 5-dioxygenase 2 (Homo sapiens) (UniProt O00469)
[19] = target: Ubiquitin carboxyl-terminal hydrolase 7 (Homo sapiens) (UniProt Q93009)
[20] = target: Aspartyl/asparaginyl beta-hydroxylase (Homo sapiens) (UniProt Q12797)
Serpin B3 (Homo sapiens) = Serpin B3 (Homo sapiens) (UniProt P29508)
[21] = target: Junctional sarcoplasmic reticulum protein 1 (Homo sapiens) (UniProt Q96MG2)
Junctional sarcoplasmic reticulum protein 1 (Homo sapiens), sequence (Q96MG2 whole entry): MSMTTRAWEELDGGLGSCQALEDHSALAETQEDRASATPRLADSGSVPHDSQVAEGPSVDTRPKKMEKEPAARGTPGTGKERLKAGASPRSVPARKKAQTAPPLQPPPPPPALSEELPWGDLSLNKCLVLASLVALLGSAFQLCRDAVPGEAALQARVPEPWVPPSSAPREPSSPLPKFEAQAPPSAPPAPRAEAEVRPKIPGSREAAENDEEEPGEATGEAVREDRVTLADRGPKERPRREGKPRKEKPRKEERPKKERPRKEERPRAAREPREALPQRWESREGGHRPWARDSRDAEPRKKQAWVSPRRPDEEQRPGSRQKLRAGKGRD

[22] = target: Keratin, type II cytoskeletal 71 (Homo sapiens) (UniProt Q3SY84)
Keratin, type II cytoskeletal 71 (Homo sapiens), sequence (Q3SY84 whole entry): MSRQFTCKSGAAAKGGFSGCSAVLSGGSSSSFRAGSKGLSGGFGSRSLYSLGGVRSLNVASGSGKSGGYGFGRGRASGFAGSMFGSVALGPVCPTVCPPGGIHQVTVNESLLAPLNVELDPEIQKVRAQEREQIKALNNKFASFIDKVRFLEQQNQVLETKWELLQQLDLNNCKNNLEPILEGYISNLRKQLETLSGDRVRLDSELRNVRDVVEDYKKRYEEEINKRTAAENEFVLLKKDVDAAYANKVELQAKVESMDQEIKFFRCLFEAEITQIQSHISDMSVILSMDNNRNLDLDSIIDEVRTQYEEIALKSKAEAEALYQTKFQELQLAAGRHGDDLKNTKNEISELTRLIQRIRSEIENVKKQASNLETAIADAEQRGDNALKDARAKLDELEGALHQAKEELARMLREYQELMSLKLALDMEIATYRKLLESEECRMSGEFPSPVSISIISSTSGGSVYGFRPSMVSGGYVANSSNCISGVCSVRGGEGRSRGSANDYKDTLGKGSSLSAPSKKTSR

[23] = target: Antigen peptide transporter 1 (Homo sapiens) (UniProt Q03518)
Antigen peptide transporter 1 (Homo sapiens), sequence (Q03518 whole entry): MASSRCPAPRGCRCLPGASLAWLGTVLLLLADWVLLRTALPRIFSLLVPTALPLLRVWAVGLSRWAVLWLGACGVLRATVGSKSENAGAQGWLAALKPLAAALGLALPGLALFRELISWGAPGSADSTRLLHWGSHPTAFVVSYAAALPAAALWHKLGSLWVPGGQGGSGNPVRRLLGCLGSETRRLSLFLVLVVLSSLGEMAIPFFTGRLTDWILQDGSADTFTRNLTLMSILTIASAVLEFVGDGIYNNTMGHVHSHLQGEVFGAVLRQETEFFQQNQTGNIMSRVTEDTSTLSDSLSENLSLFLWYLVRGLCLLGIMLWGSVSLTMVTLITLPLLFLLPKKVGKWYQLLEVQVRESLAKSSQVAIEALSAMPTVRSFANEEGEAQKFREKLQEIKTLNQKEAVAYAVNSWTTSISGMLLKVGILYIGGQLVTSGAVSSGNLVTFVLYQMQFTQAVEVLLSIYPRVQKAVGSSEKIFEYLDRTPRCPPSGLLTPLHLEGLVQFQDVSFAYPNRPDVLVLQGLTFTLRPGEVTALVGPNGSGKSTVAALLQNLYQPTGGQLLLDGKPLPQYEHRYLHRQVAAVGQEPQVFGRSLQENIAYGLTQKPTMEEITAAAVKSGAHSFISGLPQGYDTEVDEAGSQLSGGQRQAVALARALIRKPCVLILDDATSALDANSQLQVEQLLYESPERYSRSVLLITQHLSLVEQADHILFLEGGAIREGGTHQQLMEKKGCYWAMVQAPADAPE

[24] = target: Tubulin beta-6 chain (Homo sapiens) (UniProt Q9BUF5)
[25] = target: Sodium/potassium-transporting ATPase subunit alpha-1 (Homo sapiens) (UniProt P05023)
[26] = target: Protein disulfide-isomerase (Homo sapiens) (UniProt P07237)
[27] = target: Stress-70 protein, mitochondrial (Homo sapiens) (UniProt P38646)
[28] = target: S-adenosylhomocysteine hydrolase-like protein 1 (Homo sapiens) (UniProt O43865)
[29] = target: AP-2 complex subunit alpha-1 (Homo sapiens) (UniProt O95782)
AP-2 complex subunit alpha-1 (Homo sapiens), sequence (O95782 whole entry, one chain of several): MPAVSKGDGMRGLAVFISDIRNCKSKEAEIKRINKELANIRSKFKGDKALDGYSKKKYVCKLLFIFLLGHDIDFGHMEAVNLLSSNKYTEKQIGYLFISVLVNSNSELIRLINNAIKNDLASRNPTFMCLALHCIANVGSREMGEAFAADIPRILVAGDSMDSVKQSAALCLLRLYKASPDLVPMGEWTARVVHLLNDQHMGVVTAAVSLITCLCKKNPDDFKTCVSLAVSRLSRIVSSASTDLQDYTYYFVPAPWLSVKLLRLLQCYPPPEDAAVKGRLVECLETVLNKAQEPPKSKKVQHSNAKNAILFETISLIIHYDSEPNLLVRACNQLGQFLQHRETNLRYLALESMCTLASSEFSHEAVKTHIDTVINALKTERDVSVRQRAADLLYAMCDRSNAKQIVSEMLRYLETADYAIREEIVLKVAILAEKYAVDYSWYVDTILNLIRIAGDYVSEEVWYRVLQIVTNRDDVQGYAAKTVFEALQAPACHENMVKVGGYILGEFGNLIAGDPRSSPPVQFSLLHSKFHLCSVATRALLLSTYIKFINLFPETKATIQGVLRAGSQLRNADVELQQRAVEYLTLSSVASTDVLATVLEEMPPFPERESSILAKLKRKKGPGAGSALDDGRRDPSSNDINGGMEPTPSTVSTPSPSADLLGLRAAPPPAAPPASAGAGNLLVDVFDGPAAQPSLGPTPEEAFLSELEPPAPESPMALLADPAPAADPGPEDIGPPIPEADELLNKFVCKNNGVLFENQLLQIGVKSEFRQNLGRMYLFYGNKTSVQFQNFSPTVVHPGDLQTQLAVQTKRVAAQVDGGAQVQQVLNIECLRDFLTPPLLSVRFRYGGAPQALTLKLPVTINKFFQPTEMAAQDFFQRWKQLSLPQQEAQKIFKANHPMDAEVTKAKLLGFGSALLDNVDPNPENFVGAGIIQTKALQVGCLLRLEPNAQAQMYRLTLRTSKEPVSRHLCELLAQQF

[30] = target: Heat shock protein HSP 90-alpha (Homo sapiens) (UniProt P07900)
[31] = target: Importin subunit beta-1 (Homo sapiens) (UniProt Q14974)
Importin subunit beta-1 (Homo sapiens), sequence (Q14974 whole entry): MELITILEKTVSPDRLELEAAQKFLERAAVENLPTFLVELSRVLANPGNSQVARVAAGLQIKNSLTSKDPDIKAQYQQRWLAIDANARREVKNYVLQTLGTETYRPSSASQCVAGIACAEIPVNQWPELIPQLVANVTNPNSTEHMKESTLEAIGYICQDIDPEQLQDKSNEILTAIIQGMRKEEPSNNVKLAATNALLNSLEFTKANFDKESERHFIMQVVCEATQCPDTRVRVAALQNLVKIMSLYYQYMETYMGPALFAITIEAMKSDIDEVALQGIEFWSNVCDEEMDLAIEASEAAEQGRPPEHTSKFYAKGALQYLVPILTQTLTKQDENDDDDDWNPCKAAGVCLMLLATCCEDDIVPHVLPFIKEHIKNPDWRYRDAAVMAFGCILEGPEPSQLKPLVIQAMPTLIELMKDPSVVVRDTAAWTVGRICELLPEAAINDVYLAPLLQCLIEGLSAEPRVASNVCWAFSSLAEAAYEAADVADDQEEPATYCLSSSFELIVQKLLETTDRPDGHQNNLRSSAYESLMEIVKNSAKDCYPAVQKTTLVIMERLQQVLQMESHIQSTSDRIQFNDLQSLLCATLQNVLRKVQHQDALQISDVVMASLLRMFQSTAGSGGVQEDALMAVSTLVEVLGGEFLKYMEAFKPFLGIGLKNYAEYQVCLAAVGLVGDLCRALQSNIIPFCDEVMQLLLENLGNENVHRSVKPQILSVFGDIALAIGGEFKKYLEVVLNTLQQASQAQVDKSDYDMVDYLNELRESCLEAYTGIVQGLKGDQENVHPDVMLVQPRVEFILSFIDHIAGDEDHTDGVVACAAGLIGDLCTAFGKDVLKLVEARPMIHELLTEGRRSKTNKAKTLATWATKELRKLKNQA

[32] = target: Elongation factor 1-gamma (Homo sapiens) (UniProt P26641)
[33] = target: Cytoskeleton-associated protein 4 (Homo sapiens) (UniProt Q07065)
Cytoskeleton-associated protein 4 (Homo sapiens), sequence (Q07065 whole entry): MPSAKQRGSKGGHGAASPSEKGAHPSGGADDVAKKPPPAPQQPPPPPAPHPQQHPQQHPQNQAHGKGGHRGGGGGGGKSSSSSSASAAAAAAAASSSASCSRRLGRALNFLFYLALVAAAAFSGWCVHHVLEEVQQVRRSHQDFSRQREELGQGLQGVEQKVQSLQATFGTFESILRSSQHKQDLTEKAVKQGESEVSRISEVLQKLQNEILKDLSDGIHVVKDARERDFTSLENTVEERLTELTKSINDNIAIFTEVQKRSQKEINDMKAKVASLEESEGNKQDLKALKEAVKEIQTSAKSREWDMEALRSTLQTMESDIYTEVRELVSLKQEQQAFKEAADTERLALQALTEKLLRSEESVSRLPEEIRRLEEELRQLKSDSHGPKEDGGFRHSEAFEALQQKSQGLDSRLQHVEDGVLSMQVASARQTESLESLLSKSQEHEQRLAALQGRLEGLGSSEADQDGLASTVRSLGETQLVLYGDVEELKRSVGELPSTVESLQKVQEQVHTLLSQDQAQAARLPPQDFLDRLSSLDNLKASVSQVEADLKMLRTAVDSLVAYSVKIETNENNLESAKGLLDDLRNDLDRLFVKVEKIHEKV

[34] = target: Eukaryotic translation initiation factor 3 subunit A (Homo sapiens) (UniProt Q14152)

Which PSMs [1] does the source give for i3XFLAG-NLS-CTDaa154-424 here?
The PSMs was 14 PSMs.

What about the PSMs [2] of the same substance?
The PSMs was 3 PSMs.

And the PSMs [3]?
The PSMs was 68 PSMs.

What about the PSMs [4] of the same substance?
Its PSMs is 3 PSMs.

What about the PSMs [5] of the same substance?
Its PSMs is 34 PSMs.

And the PSMs [6]?
Its PSMs is 7 PSMs.

And the PSMs (Caprin-1 (Homo sapiens))?
Its PSMs is 5 PSMs.

And the PSMs [7]?
Its PSMs is 4 PSMs.

And the PSMs [8]?
The PSMs was 3 PSMs.

What about the PSMs [9] of the same substance?
The PSMs was 26 PSMs.

And the PSMs [10]?
The PSMs was 7 PSMs.

What about the PSMs [11] of the same substance?
The PSMs was 2 PSMs.

What about the PSMs [12] of the same substance?
Its PSMs is 10 PSMs.

What about the PSMs [13] of the same substance?
Its PSMs is 6 PSMs.

And the PSMs [14]?
Its PSMs is 10 PSMs.

What about the PSMs [15] of the same substance?
Its PSMs is 2 PSMs.

What about the PSMs [16] of the same substance?
The PSMs was 3 PSMs.

And the PSMs [17]?
Its PSMs is 7 PSMs.

And the PSMs [18]?
Its PSMs is 3 PSMs.

What about the PSMs [19] of the same substance?
The PSMs was 6 PSMs.

And the PSMs [20]?
The PSMs was 9 PSMs.

What about the PSMs (Serpin B3 (Homo sapiens)) of the same substance?
The PSMs was 2 PSMs.

And the PSMs [21]?
The PSMs was 10 PSMs.

What about the PSMs [22] of the same substance?
The PSMs was 9 PSMs.

What about the PSMs [23] of the same substance?
Its PSMs is 3 PSMs.

What about the PSMs [24] of the same substance?
The PSMs was 39 PSMs.

What about the PSMs [25] of the same substance?
The PSMs was 3 PSMs.

What about the PSMs [26] of the same substance?
Its PSMs is 5 PSMs.

What about the PSMs [27] of the same substance?
Its PSMs is 10 PSMs.

What about the PSMs [28] of the same substance?
Its PSMs is 11 PSMs.

What about the PSMs [29] of the same substance?
Its PSMs is 31 PSMs.

What about the PSMs [30] of the same substance?
Its PSMs is 9 PSMs.

And the PSMs [31]?
Its PSMs is 5 PSMs.

And the PSMs [32]?
Its PSMs is 6 PSMs.

What about the PSMs [33] of the same substance?
Its PSMs is 62 PSMs.

What about the PSMs [34] of the same substance?
The PSMs was 2 PSMs.
